Changes are numbered by the printed parent chain. Numbers in names are those of the source.
How the values were obtained:
Assay type in all cases: biochemical
[1] = Hydroxamate assay to verify phosphorylation of the substrate; conditions: 10 mM malate, 10 mM ATP, 30 min
Protocol: Hydroxamate assay: To verify phosphorylation of the substrate, i.e. formation of an acylphosphate anhydride, by wild-type or mutated aspartate kinases, the product of the kinase reaction was incubated with hydroxylamine to form the corresponding aspartate or malate hydroxamate derivative. The assay mixture contained 120 mM Hepes (pH 8), 200 mM KCl, 10 mM ATP, 200 mM hydroxylamine, 10 mM aspartate or malate, and appropriate amount of purified protein. The reaction was stopped after 30 min by addition of an equal volume of 1.7% (w/v) FeCl3 in 1 M hydrochloric acid. Formation of the hydroxamate-iron complex was verified by measuring its characteristic absorbance at 540 nm in a microtiter plate reader. Assay mixtures containing all components except for ATP were used as a blank.

[2] = Aspartate kinase activity, ADP production coupled to NADH oxidation; conditions: purified enzyme, 30° C., pH 7.5
Protocol: Enzymatic assay: Aspartate or malate kinase activities were assayed by coupling ADP production in the kinase reactions to NADH oxidation in the presence of phosphoenolpyruvate, pyruvate kinase, and lactate dehydrogenase.
Aspartate (or Malate) Kinase aspartate (or malate)+ATP→4-phospho-(L)-aspartate (or 4-phospho-(L)-malate)+ADP
Pyruvate Kinase ADP+phosphoenolpyruvate→ATP+pyruvate
Lactate Dehydrogenase pyruvate+NADH→NAD^++lactate
The assay mixture contained 50 mM Hepes (pH 7.5), 50 mM KCl, 5 mM MgCl2, 0.24 mM NADH, 0.96 mM ATP, 0.96 mM PEP, 9 μg/mL of lactate dehydrogenase (Sigma, L2500), 12.4 μg/mL pyruvate kinase (Sigma, P1506), and appropriate amounts of purified aspartate (malate) kinase. Reactions were started by adding 50 mM (L)-aspartate or (L)-malate. Enzymatic assays were carried out at 30° C. in 96-well flat bottomed microtiter plates in a final volume of 250 μL. The reactions were followed by the characteristic absorption of NADH at 340 nm in a microplate reader (BioRad 680XR).
Maximum activities for LysC and Hom3 on aspartate were 4.5 μmol/(min*mgprot) and 1.6 μmol/(min*mgprot), respectively. The Km value for aspartate was estimated with the method of Eadie and Hofstee by measuring initial reaction rates (v) at different substrate concentrations (c) and by extracting the slope of the v versus v/c plot. […]

[3] = Aspartate semialdehyde dehydrogenase activity, reverse biosynthetic direction, NADP reduction; conditions: His-tagged enzyme, pH 9, 30° C.
Protocol: (§1) Enzymatic assay: Aspartate or malate semialdehyde dehydrogenase activities were assayed in the reverse biosynthetic direction by following the reduction of NADP during the oxidation of aspartate or malate semialdehyde to 4-phospho-(L)-aspartate or 4-phospho-(L)-malate, respectively (Roberts et al., 2003). (L)-aspartate semialdehyde (or (L)-malate semialdehyde)+NADP+Pi→4-phospho-(L)-aspartate (or 4-phospho-(L)-malate)+NADPH
(§2) The assay mixture contained 200 mM Hepes (pH 9), 50 mM K2HPO4, 0.25 mM NADP. Reactions were started by adding (L)-aspartate semialdehyde or (L)-malate semialdehyde. (L)-Aspartate semialdehyde was added in the form of L-aspartic acid β-semialdehyde hydrate trifluoroacetate (maintained at pH3 to prevent degradation) which is a suitable substrate for enzymatic tests of homoserine dehydrogenase and aspartate semialdehyde dehysrogenase (Roberts et al., 2003). Unstable malate semialdehyde was produced freshly prior to the enzymatic tests by the deprotection of the stable malate semialdehyde derivative 2-[(4S)-2,2-dimethyl-5-oxo-1,3-dioxolan-4-yl]acetaldehyde (DMODA). […]
(§3) Enzymatic assays were carried out in 96-well flat bottomed microtiter plates in a final volume of 250 μL at 30° C. The reactions were followed by the characteristic absorption of NADPH at 340 nm in a microplate reader (BioRad 680XR).

[4] = Malate semialdehyde dehydrogenase activity, reverse biosynthetic direction, NADP reduction
Protocol: as §1, §2, §3

[5] = Test for malate semialdehyde reductase activity; conditions: for Activity on malate semialdehyde (cofactor NADPH): 0.24 mM NADPH
Protocol: Test for Malate Semialdehyde Reductase Activity: Reaction: (L)-Malate semialdehyde+NAD(P)H→(L)-2,4-dihydroxybutyric acid+NAD(P)
The assay mixture contained 200 mM Hepes (pH 7.5), 50 mM KCl, 5 mM MgCl2, 0.24 mM NADH or NADPH, and appropriate amounts of purified enzyme. Reactions were started by adding 10 mM (L)-malate semialdehyde (malate semialdehyde was prepared freshly for each test, see Example 4). Enzymatic assays were carried out at 30° C. in 96-well flat bottomed microtiter plates in a final volume of 250 μL. The reactions were followed by the characteristic absorption of NAD(P)H at 340 nm in a microplate reader (BioRad 680XR).

[6] = 10 mM (L)-malate semialdehyde, 30° C.

B1: LysC: wild-type aspartate kinase III of E. coli encoded by the lysC gene (protein, listed as Escherichia coli)
chain: MSEIVVSKFGGTSVADFDAMNRSADIVLSDANVRLVVLSASAGITNLLVALAEGLEPGERFEKLDAIRNIQFAILERLRYPNVIREEIERLLENITVLAEAAALATSPALTDELVSHGELMSTLLFVEILRERDVQAQWFDVRKVMRTNDRFGRAEPDIAALAELAALQLLPRLNEGLVITQGFIGSENKGRTTTLGRGGSDYTAALLAEALHASRVDIWTDVPGIYTTDPRVVSAAKRIDEIAFAEAAEMATFGAKVLHPATLLPAVRSDIPVFVGSSKDPRAGGTLVCNKTENPPLFRALALRRNQTLLTLHSLNMLHSRGFLAEVFGILARHNISVDLITTSEVSVALTLDTTGSTSTGDTLLTQSLLMELSALCRVEVEEGLALVALIGNDLSKACGVGKEVFGVLEPFNIRMICYGASSHNLCFLVPGEDAEQVVQKLHSNLFE
[1]
  Phosphorylation of malate as verified by the hydroxamate assay: not able to phosphorylate malate
[2]
  Maximum activity on aspartate: 4.5 μmol/(min*mgprot)

B2: Hom3: wild-type aspartate kinase of Saccharomyces cerevisiae encoded by HOM3 (protein, listed as Saccharomyces cerevisiae)
chain: MPMDFQPTSSHSNWVVQKFGGTSVGKFPVQIVDDIVKHYSKPDGPNNNVAVVCSARSSYTKAEGTTSRLLKCCDLASQESEFQDIIEVIRQDHIDNADRFILNPALQAKLVDDTNKELELVKKYLNASKVLGEVSSRTVDLVMSCGEKLSCLFMTALCNDRGCKAKYVDLSHIVPSDFSASALDNSFYTFLVQALKEKLAPFVSAKERIVPVFTGFFGLVPTGLLNGVGRGYTDLCAALIAVAVNADELQVWKEVDGIFTADPRKVPEARLLDSVTPEEASELTYYGSEVIHPFTMEQVIRAKIPIRIKNVQNPLGNGTIIYPDNVAKKGESTPPHPPENLSSSFYEKRKRGATAITTKNDIFVINIHSNKKTLSHGFLAQIFTILDKYKLVVDLISTSEVHVSMALPIPDADSLKSLRQAEEKLRILGSVDITKKLSIVSLVGKHMKQYIGIAGTMFTTLAEEGINIEMISQGANEINISCVINESDSIKALQCIHAKLLSERTNTSNQFEHAIDERLEQLKRLGI
[1]
  Phosphorylation of malate as verified by the hydroxamate assay: not able to phosphorylate malate
[2]
  Maximum activity on aspartate: 1.6 μmol/(min*mgprot)

B3: Asd: wild-type aspartate semialdehyde dehydrogenase of E. coli, His-tagged (protein, listed as Escherichia coli)
chain: MKNVGFIGWRGMVGSVLMQRMVEERDFDAIRPVFFSTSQLGQAAPSFGGTTGTLQDAFDLEALKALDIIVTCQGGDYTNEIYPKLRESGWQGYWIDAASSLRMKDDAIIILDPVNQDVITDGLNNGIRTFVGGNCTVSLMLMSLGGLFANDLVDWVSVATYQAASGGGARHMRELLTQMGHLYGHVADELATPSSAILDIERKVTTLTRSGELPVDNFGVPLAGSLIPWIDKQLDNGQSREEWKGQAETNKILNTSSVIPVDGLCVRVGALRCHSQAFTIKLKKDVSIPTVEELLAAHNPWAKVVPNDREITMRELTPAAVTGTLTTPVGRLRKLNMGPEFLSAFTVGDQLLWGAAEPLRRMLRQLA
modifications: His tag
notes: wild-type aspartate semialdehyde dehydrogenase of E. coli, His-tagged
[3]
  Maximum specific activity, oxidation of (L)-aspartate semialdehyde to 4-phospho-(L)-aspartate: 160 μmol/(min*mgprot)
[4]; His-tagged enzyme, pH 9, 30° C.
  Activity on (L)-malate semialdehyde: 0.01 μmol/(min*mgprot)

B4: Asd E241Q T136N: double mutant of E. coli aspartate semialdehyde dehydrogenase Asd (protein, listed as Escherichia coli)
chain: B3 chain with T136N, E241Q
[4]; substrate not given, Example 5 tests malate semialdehyde dehydrogenase activity
  Maximum specific activity: 0.25 μmol/(min*mgprot)

B5: H39R N43H (SEQ ID NO: 81): M. sedula succinic semialdehyde reductase double mutant H39R N43H (protein, listed as Metallosphaera sedula)
chain: MKAAVLHTYKEPLSIEDVNISQPKAGEVKIKVKATGLCRSDVHVFEGKTPVPPPVVAGHEISGIVEEVGPGVTRVKPGDRVISAFIHPCGKCGNCVAGKENLCETFSQVRLKGVMPDGTSRLSKDGKEIRTFLGGGFAEYAIVGENALTRVPEDMDLEKVAVLGCAGLTGYGAISSSKIEPGDTVAVIGVGGVGLSTIQLLRASGAGRIIAVGTKKWKLDRAMELGATDVVNSKEIDPVKAIKEITGGGPQVVIEAGGNEDTIHMALDSVRIGGKVVLVGLPPATAMIPIRVASIVRGGIEVVGNYGGRPRVDMPKLLELVRQGRYDPSRLVTGRFRLEEINEAVKMLEEGEAIRSLIIP
[5]
  Affinity for malate semialdehyde compared to the wild type enzyme: improved affinity

B6: Ms-SSR: succinic semialdehyde reductase from Metallosphaera sedula, wild type (protein, listed as Metallosphaera sedula)
chain: B5 chain with R39H, H43N
[5]; 10 mM (L)-malate semialdehyde, 0.24 mM NADH, 30° C.
  Activity on malate semialdehyde (cofactor NADH): 4.9 μmol/(min*mg_prot)
[5]; [6]
  Activity on malate semialdehyde (cofactor NADPH): 4.9 μmol/(min*mg_prot)

B7: YPR1: methylbutyraldehyde reductase from Saccharomyces cerevisiae (protein, listed as Saccharomyces cerevisiae)
chain: MPATLKNSSATLKLNTGASIPVLGFGTWRSVDNNGYHSVIAALKAGYRHIDAAAIYLNEEEVGRAIKDSGVPREEIFITTKLWGTEQRDPEAALNKSLKRLGLDYVDLYLMHWPVPLKTDRVTDGNVLCIPTLEDGTVDIDTKEWNFIKTWELMQELPKTGKTKAVGVSNFSINNIKELLESPNNKVVPATNQIEIHPLLPQDELIAFCKEKGIVVEAYSPFGSANAPLLKEQAIIDMAKKHGVEPAQLIISWSIQRGYVVLAKSVNPERIVSNFKIFTLPEDDFKTISNLSKVHGTKRVVDMKWGSFPIFQ
[5]; [6]
  Activity on malate semialdehyde (cofactor NADPH): 0.19 μmol/(min*mg_prot)
